B1: DCC-interacting protein 13-alpha (Homo sapiens), Q9UKG1 (parent)
chain: MPGIDKLPIEETLEDSPQTRSLLGVFEEDATAISNYMNQLYQAMHRIYDAQNELSAATHLTSKLLKEYEKQRFPLGGDDEVMSSTLQQFSKVIDELSSCHAVLSTQLADAMMFPITQFKERDLKEILTLKEVFQIASNDHDAAINRYSRLSKKRENDKVKYEVTEDVYTSRKKQHQTMMHYFCALNTLQYKKKIALLEPLLGYMQAQISFFKMGSENLNEQLEEFLANIGTSVQNVRREMDSDIETMQQTIEDLEVASDPLYVPDPDPTKFPVNRNLTRKAGYLNARNKTGLVSSTWDRQFYFTQGGNLMSQARGDVAGGLAMDIDNCSVMAVDCEDRRYCFQITSFDGKKSSILQAESKKDHEEWICTINNISKQIYLSENPEETAARVNQSALEAVTPSPSFQQRHESLRPAAGQSRPPTARTSSSGSLGSESTNLAALSLDSLVAPDTPIQFDIISPVCEDQPGQAKAFGQGGRRTNPFGESGGSTKSETEDSILHQLFIVRFLGSMEVKSDDHPDVVYETMRQILAARAIHNIFRMTESHLLVTCDCLKLIDPQTQVTRLTFPLPCVVLYATHQENKRLFGFVLRTSSGRSESNLSSVCYIFESNNEGEKICDSVGLAKQIALHAELDRRASEKQKEIERVKEKQQKELNKQKQIEKDLEEQSRLIAASSRPNQASSEGQFVVLSSSQSEESDLGEGGKKRESEA
B2: Breast cancer metastasis-suppressor 1 (Homo sapiens), Q9HCU9 (parent)
chain: MPVQPPSKDTEEMEAEGDSAAEMNGEEEESEEERSGSQTESEEESSEMDDEDYERRRSECVSEMLDLEKQFSELKEKLFRERLSQLRLRLEEVGAERAPEYTEPLGGLQRSLKIRIQVAGIYKGFCLDVIRNKYECELQGAKQHLESEKLLLYDTLQGELQERIQRLEEDRQSLDLSSEWWDDKLHARGSSRSWDSLPPSKRKKAPLVSGPYIVYMLQEIDILEDWTAIKKARAAVSPQKRKSDGP
B3: WASH complex subunit 3 (Homo sapiens), Q9Y3C0 (parent)
chain: MDEDGLPLMGSGIDLTKVPAIQQKRTVAFLNQFVVHTVQFLNRFSTVCEEKLADLSLRIQQIETTLNILDAKLSSIPGLDDVTVEVSPLNVTSVTNGAHPEATSEQPQQNSTQDSGLQESEVSAENILTVAKDPRYARYLKMVQVGVPVMAIRNKMISEGLDPDLLERPDAPVPDGESEKTVEESSDSESSFSD
partner: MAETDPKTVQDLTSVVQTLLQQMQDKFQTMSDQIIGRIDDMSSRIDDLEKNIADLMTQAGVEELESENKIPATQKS
B4: Keratin, type I cytoskeletal 20 (Homo sapiens), P35900 (parent)
chain: MDFSRRSFHRSLSSSLQAPVVSTVGMQRLGTTPSVYGGAGGRGIRISNSRHTVNYGSDLTGGGDLFVGNEKMAMQNLNDRLASYLEKVRTLEQSNSKLEVQIKQWYETNAPRAGRDYSAYYRQIEELRSQIKDAQLQNARCVLQIDNAKLAAEDFRLKYETERGIRLTVEADLQGLNKVFDDLTLHKTDLEIQIEELNKDLALLKKEHQEEVDGLHKHLGNTVNVEVDAAPGLNLGVIMNEMRQKYEVMAQKNLQEAKEQFERQTAVLQQQVTVNTEELKGTEVQLTELRRTSQSLEIELQSHLSMKESLEHTLEETKARYSSQLANLQSLLSSLEAQLMQIRSNMERQNNEYHILLDIKTRLEQEIATYRRLLEGEDVKTTEYQLSTLEERDIKKTRKIKTVVQEVVDGKVVSSEVKEVEENI
partner: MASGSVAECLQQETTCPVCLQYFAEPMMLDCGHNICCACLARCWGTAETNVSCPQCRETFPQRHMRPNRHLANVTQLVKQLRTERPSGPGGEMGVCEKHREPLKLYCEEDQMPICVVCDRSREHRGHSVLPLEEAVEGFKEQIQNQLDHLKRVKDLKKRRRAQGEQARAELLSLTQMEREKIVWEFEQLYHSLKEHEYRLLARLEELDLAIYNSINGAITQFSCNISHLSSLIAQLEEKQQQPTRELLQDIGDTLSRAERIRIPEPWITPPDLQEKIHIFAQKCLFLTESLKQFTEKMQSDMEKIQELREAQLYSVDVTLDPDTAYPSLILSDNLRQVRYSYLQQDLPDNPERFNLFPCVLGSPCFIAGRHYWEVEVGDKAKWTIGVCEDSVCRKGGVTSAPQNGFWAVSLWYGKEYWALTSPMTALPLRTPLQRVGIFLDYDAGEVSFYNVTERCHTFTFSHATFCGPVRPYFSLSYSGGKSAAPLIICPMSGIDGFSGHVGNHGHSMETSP

Variants of: B1
Settings: with traf2_human TRAF2, Q12933
Sequence of traf2_human TRAF2, Q12933 (Q12933 whole entry): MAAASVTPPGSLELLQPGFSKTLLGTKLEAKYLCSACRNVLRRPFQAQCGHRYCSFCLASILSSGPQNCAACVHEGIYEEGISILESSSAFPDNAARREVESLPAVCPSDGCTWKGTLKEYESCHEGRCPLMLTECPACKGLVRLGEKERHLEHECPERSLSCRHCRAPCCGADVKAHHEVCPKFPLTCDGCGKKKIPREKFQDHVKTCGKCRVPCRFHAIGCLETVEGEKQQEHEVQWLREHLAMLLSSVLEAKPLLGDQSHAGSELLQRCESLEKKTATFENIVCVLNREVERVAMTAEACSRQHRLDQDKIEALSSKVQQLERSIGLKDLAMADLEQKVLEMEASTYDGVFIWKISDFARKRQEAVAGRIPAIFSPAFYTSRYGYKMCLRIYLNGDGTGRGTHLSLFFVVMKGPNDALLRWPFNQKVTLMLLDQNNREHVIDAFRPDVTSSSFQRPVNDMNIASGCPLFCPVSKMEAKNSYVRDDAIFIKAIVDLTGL

Row | Variant | effect of a mutation on the interaction
1 | E67G | with no effect

Variants of: B1
Settings: with maga9_human MAGEA9, P43362
Sequence of maga9_human MAGEA9, P43362 (P43362 whole entry): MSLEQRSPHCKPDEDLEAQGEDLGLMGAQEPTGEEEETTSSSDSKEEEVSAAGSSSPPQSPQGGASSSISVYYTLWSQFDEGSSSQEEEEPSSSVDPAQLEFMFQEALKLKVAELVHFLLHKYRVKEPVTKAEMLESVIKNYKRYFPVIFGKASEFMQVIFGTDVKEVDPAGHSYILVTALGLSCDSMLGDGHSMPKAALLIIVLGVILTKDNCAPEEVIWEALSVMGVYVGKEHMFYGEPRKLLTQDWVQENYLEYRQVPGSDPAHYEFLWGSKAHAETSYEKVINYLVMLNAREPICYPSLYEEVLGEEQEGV

Row | Variant | effect of a mutation on the interaction
2 | E67G | with no effect

Variants of: B2
Settings: with cep70_human CEP70, Q8NHQ1
Sequence of cep70_human CEP70, Q8NHQ1 (Q8NHQ1 whole entry): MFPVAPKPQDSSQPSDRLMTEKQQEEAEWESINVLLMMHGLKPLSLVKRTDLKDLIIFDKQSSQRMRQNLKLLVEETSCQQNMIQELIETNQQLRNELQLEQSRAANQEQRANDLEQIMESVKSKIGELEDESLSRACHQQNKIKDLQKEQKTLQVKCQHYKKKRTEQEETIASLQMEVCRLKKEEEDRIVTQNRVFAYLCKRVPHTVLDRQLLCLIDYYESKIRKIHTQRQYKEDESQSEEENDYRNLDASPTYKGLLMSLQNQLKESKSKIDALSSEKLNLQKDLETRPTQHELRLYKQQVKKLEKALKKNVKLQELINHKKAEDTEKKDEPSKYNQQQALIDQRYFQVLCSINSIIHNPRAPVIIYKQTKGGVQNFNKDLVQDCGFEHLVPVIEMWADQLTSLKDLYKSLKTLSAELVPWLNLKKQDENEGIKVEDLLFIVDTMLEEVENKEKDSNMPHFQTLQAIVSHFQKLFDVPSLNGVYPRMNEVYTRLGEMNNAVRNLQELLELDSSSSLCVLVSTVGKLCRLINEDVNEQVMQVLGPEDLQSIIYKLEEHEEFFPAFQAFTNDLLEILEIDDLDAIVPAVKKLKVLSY

Row | Variant | effect of a mutation on the interaction
3 | S7G | with no effect

Variants of: B3
Settings: with hsbp1_human HSBP1, O75506

Row | Variant | effect of a mutation on the interaction
4 | F44L | with no effect

Variants of: B4
Settings: with tri27_human TRIM27, P14373

Row | Variant | effect of a mutation on the interaction
5 | S309Y | with no effect
